Results from the supplement of paper PMC10567573.

B1: P2RY14 (parent)
chain: KLLSVIVWMLMLLLAVPNIILTNQ
B2: RHOBTB3 (parent)
chain: KVVEAHKIVLCAVSHVFMLLFNVK

Variants of: B1
Assay: protein stability index of a GFP-peptide fusion (GPS, HEK-293T) (PSI 1-6); higher = more stable
Settings: c terminus: a fixed tail appended
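Note: lentivirally expressed fusions sorted by FACS into six bins by GFP to DsRed ratio, PSI derived from sequencing read proportions per bin multiplied by bin number.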

Row | Variant | protein stability index
1 | KLLSVIVWMLMLLLAVPNTILTNQ [I19T] | 3.06
2 | KLLSVIVWMLMLLLAVPNYILTNQ [I19Y] | 3.02
3 | KLLSVIVWMLMLLLAVPNIALTNQ [I20A] | 2.31
4 | KLLSVIVWMLMLLLAVPNICLTNQ [I20C] | 1.86
5 | KLLSVIVWMLMLLLAVPNIDLTNQ [I20D] | 3.27
6 | KLLSVIVWMLMLLLAVPNIELTNQ [I20E] | 3.69
7 | KLLSVIVWMLMLLLAVPNIFLTNQ [I20F] | 2.73
8 | KLLSVIVWMLMLLLAVPNIKLTNQ [I20K] | 3.1
9 | KLLSVIVWMLMLLLAVPNILLTNQ [I20L] | 2.52
10 | KLLSVIVWMLMLLLAVPNINLTNQ [I20N] | 2.31
11 | KLLSVIVWMLMLLLAVPNIPLTNQ [I20P] | 4.08
12 | KLLSVIVWMLMLLLAVPNISLTNQ [I20S] | 3.35
13 | KLLSVIVWMLMLLLAVPNIVLTNQ [I20V] | 2.79
14 | KLLSVIVWMLMLLLAVPNIYLTNQ [I20Y] | 3.09
15 | KLLSVIVWMLMLLLAVPNIIATNQ [L21A] | 3.89
16 | KLLSVIVWMLMLLLAVPNIICTNQ [L21C] | 3.7
17 | KLLSVIVWMLMLLLAVPNIIDTNQ [L21D] | 2.99
18 | KLLSVIVWMLMLLLAVPNIIETNQ [L21E] | 2.6
19 | KLLSVIVWMLMLLLAVPNIIFTNQ [L21F] | 2.73
20 | KLLSVIVWMLMLLLAVPNIIGTNQ [L21G] | 3.21
21 | KLLSVIVWMLMLLLAVPNIIHTNQ [L21H] | 2.2
22 | KLLSVIVWMLMLLLAVPNIIITNQ [L21I] | 3.12
23 | KLLSVIVWMLMLLLAVPNIIMTNQ [L21M] | 2.96
24 | KLLSVIVWMLMLLLAVPNIINTNQ [L21N] | 2.28

Row | Variant | protein stability index
25 | KLLSVIVWMLMLLLAVPNIIPTNQ [L21P] | 1.98
26 | KLLSVIVWMLMLLLAVPNIIRTNQ [L21R] | 4.98
27 | KLLSVIVWMLMLLLAVPNIISTNQ [L21S] | 2.57
28 | KLLSVIVWMLMLLLAVPNIITTNQ [L21T] | 3.22
29 | KLLSVIVWMLMLLLAVPNIILANQ [T22A] | 2.75
30 | KLLSVIVWMLMLLLAVPNIILDNQ [T22D] | 4.01
31 | KLLSVIVWMLMLLLAVPNIILFNQ [T22F] | 2.97
32 | KLLSVIVWMLMLLLAVPNIILHNQ [T22H] | 2.69
33 | KLLSVIVWMLMLLLAVPNIILINQ [T22I] | 2.32
34 | KLLSVIVWMLMLLLAVPNIILKNQ [T22K] | 3.2
35 | KLLSVIVWMLMLLLAVPNIILLNQ [T22L] | 2.2
36 | KLLSVIVWMLMLLLAVPNIILMNQ [T22M] | 2.38
37 | KLLSVIVWMLMLLLAVPNIILNNQ [T22N] | 2.75
38 | KLLSVIVWMLMLLLAVPNIILSNQ [T22S] | 3.96
39 | KLLSVIVWMLMLLLAVPNIILVNQ [T22V] | 4.59
40 | KLLSVIVWMLMLLLAVPNIILWNQ [T22W] | 2.92
41 | KLLSVIVWMLMLLLAVPNIILYNQ [T22Y] | 3.3
42 | KLLSVIVWMLMLLLAVPNIILTAQ [N23A] | 2.34
43 | KLLSVIVWMLMLLLAVPNIILTCQ [N23C] | 2.15
44 | KLLSVIVWMLMLLLAVPNIILTDQ [N23D] | 3.86
45 | KLLSVIVWMLMLLLAVPNIILTEQ [N23E] | 3.67
46 | KLLSVIVWMLMLLLAVPNIILTFQ [N23F] | 2.98
47 | KLLSVIVWMLMLLLAVPNIILTGQ [N23G] | 2.54
48 | KLLSVIVWMLMLLLAVPNIILTHQ [N23H] | 3.59

Row | Variant | protein stability index
49 | KLLSVIVWMLMLLLAVPNIILTIQ [N23I] | 1
50 | KLLSVIVWMLMLLLAVPNIILTKQ [N23K] | 2.45
51 | KLLSVIVWMLMLLLAVPNIILTMQ [N23M] | 2.42
52 | KLLSVIVWMLMLLLAVPNIILTRQ [N23R] | 1.92
53 | KLLSVIVWMLMLLLAVPNIILTTQ [N23T] | 2.97
54 | KLLSVIVWMLMLLLAVPNIILTVQ [N23V] | 2.99
55 | KLLSVIVWMLMLLLAVPNIILTWQ [N23W] | 2.57
56 | KLLSVIVWMLMLLLAVPNIILTYQ [N23Y] | 2.21
57 | KLLSVIVWMLMLLLAVPNIILTNC [Q24C] | 2.79
58 | KLLSVIVWMLMLLLAVPNIILTND [Q24D] | 4.62
59 | KLLSVIVWMLMLLLAVPNIILTNE [Q24E] | 2.74
60 | KLLSVIVWMLMLLLAVPNIILTNF [Q24F] | 2.69
61 | KLLSVIVWMLMLLLAVPNIILTNG [Q24G] | 2.91
62 | KLLSVIVWMLMLLLAVPNIILTNH [Q24H] | 2.8
63 | KLLSVIVWMLMLLLAVPNIILTNI [Q24I] | 2.79
64 | KLLSVIVWMLMLLLAVPNIILTNK [Q24K] | 2.6
65 | KLLSVIVWMLMLLLAVPNIILTNL [Q24L] | 3.08
66 | KLLSVIVWMLMLLLAVPNIILTNP [Q24P] | 2.59
67 | KLLSVIVWMLMLLLAVPNIILTNR [Q24R] | 3.28
68 | KLLSVIVWMLMLLLAVPNIILTNT [Q24T] | 2.81
69 | KLLSVIVWMLMLLLAVPNIILTNV [Q24V] | 1.96
70 | KLLSVIVWMLMLLLAVPNIILTNW [Q24W] | 2.33

Variants of: B2
Assay: as above
Settings: c terminus: a fixed tail appended

Row | Variant | protein stability index
71 | KVVEAHKIALCAVSHVFMLLFNVK [V9A] | 1.87
72 | WVVEAHKIVLCAVSHVFMLLFNVK [K1W] | 3.19
73 | KVVEAHKIVLCAVSHVFMLFFNVK [L20F] | 2.97
74 | KVVEAHKIVLPAVSHVFMLLFNVK [C11P] | 2.8
75 | KVVELHKIVLCAVSHVFMLLFNVK [A5L] | 1.76
76 | KVVEAHKIVLCAVSHIFMLLFNVK [V16I] | 2.65
77 | KVVEAHKIVLCAVSHVFMALFNVK [L19A] | 2.69
78 | KVVEAHKIVLLAVSHVFMLLFNVK [C11L] | 2.24
79 | KVVEAHKIVLCAVSHVFMLIFNVK [L20I] | 1.74
80 | KVVEAHKIVLCAVSHVFMLLFNVC [K24C] | 2.8
81 | KVVEAHKIVLCAVSHFFMLLFNVK [V16F] | 2.99
82 | KVVEAHKIVLCAVRHVFMLLFNVK [S14R] | 1.41
83 | KVVEAHKIVLMAVSHVFMLLFNVK [C11M] | 2.26
84 | KVPEAHKIVLCAVSHVFMLLFNVK [V3P] | 3.35
85 | HVVEAHKIVLCAVSHVFMLLFNVK [K1H] | 2.2
86 | KVVEAGKIVLCAVSHVFMLLFNVK [H6G] | 1.84
87 | KVVEAHKIVLCAVSHVFMYLFNVK [L19Y] | 2.59
88 | KVVYAHKIVLCAVSHVFMLLFNVK [E4Y] | 2.75
89 | KVVEAHKIVLCAVSHVFSLLFNVK [M18S] | 1.95
90 | KVVMAHKIVLCAVSHVFMLLFNVK [E4M] | 2.54
91 | KVVEAHKIVLCAVSHVFMLLINVK [F21I] | 3.17
92 | KVVEAHKIVLCAVSHMFMLLFNVK [V16M] | 2.3
93 | KVVEAHKIVLCAVSHVFMLLFNYK [V23Y] | 3.03
94 | KVVEAHKIVLCMVSHVFMLLFNVK [A12M] | 2.2
